In paper PMC5510004, “Recruitment and positioning determine the specific role of the XPF‐ERCC1 endonuclease in interstrand crosslink repair”:

Columns and labels:
[1] = target: T1, XPF wild type (xlXPF);ERCC1 wild type (hsERCC1) (Xenopus laevis;Homo sapiens?, UniProt A0A8J0PXV9;P07992 1-897;1-297, |); assay: fluorescence anisotropy; 2 mM Ca2+; 25 mM Hepes pH 8.0, 15% glycerol, 0.1 mg/ml BSA, 2 mM CaCl2, 10 nM DNA, 1 h at room temperature; conditions: protein: recombinant;recombinant; tags: FLAG;His; copies: 1;1; label: 5'-FAM on F1; three strands 1:1:1
T1 sequence 1: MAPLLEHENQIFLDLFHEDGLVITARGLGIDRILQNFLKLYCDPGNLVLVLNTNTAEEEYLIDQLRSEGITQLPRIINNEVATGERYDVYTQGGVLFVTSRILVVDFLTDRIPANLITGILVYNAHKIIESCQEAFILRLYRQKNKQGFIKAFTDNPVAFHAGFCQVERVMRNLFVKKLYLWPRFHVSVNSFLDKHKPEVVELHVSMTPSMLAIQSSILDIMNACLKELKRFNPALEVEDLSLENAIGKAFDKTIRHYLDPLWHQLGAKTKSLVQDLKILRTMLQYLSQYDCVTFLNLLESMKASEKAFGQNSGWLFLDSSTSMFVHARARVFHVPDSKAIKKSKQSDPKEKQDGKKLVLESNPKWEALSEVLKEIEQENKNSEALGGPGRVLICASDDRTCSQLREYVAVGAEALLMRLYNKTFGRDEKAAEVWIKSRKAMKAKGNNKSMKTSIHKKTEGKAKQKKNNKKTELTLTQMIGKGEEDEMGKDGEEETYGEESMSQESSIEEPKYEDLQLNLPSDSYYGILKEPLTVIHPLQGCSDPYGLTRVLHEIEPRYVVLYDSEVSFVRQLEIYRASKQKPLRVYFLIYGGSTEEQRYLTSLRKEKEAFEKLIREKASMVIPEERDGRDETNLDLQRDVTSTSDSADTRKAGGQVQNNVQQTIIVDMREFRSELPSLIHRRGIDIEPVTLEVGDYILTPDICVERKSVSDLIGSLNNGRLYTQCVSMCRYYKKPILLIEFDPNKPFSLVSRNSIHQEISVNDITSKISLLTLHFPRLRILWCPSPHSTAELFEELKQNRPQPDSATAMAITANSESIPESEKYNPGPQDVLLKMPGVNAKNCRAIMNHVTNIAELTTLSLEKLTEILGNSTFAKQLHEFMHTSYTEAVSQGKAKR
T1 sequence 2: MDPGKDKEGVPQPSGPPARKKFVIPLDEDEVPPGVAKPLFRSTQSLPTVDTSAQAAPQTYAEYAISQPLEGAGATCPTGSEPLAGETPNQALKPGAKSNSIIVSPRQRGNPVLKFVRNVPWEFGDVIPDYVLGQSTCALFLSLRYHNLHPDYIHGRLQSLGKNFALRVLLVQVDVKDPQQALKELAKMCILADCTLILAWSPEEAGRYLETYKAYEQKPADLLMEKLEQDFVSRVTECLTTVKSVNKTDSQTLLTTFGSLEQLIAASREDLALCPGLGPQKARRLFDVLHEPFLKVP

[2] = target: T2, XPF deltaNSGW;ERCC1 wild type (hsERCC1) (Xenopus laevis;Homo sapiens?, UniProt A0A8J0PXV9;P07992 1-897;1-297, del312-315|); assay: fluorescence anisotropy; 2 mM Ca2+; comparable to wild type; 25 mM Hepes pH 8.0, 15% glycerol, 0.1 mg/ml BSA, 2 mM CaCl2, 10 nM DNA, 1 h at room temperature; conditions: protein: recombinant;recombinant; tags: FLAG;His; copies: 1;1; label: 5'-FAM on F1; three strands 1:1:1
T2 sequence 1: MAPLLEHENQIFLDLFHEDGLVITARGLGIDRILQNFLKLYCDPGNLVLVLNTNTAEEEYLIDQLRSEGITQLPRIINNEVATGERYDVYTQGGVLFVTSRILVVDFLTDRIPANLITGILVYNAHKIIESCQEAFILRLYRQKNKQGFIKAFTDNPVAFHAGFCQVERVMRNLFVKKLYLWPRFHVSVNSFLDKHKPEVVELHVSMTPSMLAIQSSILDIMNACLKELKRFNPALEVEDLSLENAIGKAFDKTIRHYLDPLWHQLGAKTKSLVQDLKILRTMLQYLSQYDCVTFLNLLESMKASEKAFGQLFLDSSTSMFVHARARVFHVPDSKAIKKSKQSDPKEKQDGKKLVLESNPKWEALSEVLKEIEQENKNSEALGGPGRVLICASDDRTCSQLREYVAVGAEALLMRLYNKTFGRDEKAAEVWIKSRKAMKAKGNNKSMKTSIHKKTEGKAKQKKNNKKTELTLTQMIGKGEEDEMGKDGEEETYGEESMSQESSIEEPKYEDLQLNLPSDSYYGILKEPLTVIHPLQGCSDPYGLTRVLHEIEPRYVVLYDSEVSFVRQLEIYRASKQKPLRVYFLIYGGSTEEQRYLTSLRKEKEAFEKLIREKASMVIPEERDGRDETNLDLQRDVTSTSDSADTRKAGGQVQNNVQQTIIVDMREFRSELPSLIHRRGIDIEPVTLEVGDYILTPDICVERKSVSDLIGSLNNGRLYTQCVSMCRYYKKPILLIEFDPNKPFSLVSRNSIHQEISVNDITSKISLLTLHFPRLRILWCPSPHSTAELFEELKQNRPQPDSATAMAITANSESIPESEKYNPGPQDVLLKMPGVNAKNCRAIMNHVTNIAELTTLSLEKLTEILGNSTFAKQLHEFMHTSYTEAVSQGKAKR
T2 sequence 2: T1 sequence 2

B1: 3' flap DNA substrate (F1+F2+F3) (dsDNA)
DNA 1: CGCGATGCGGATCCAA
DNA 2: CCTAGACTTAAGAGGCCAGACTTGGATCCGCATCGC
DNA 3: GGCCTCTTAAGTCTAGG
**Q.** Does B1 bind [1]?
**A.** Result: binds

**Q.** Does B1 bind [2]?
**A.** Result: binds
